According to publication PMC11144202, “Highly biased agonism for GPCR ligands via nanobody tethering” (Nature Communications, 2024):

How the values were obtained:
[1] = biological target: T1, native human type-1 parathyroid hormone receptor (hPTHR1) (Homo sapiens, UniProt Q03431); assay: flow cytometry on cells; biotin-labeled Nbs or conjugates (500 nM in Fig. 4A, or varying concentrations) incubated 30 min on ice in PBS with 2% BSA with HEK293 cells stably expressing the receptor; detection with streptavidin-APC; settings: one partner purified
T1 construct: type-1 parathyroid hormone receptor, human, unmodified receptor on the cell surface; also called WT PTHR1; WT-PTHR1; source: HEK293 (GS22) cells, stably expressing, on cells

[2] = biological target: T2, PTHR1 extracellular domain (ECD); assay: SPR; replicate 2; biotinylated Nb immobilized
T2 chain: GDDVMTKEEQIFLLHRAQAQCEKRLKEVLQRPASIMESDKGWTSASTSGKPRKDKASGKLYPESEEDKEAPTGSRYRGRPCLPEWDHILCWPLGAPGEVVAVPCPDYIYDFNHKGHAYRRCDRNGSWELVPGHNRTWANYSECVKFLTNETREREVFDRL

[3] = biological target: T2, PTHR1 extracellular domain (ECD); assay: SPR; replicate 1; biotinylated Nb immobilized
[4] = biological target: T2, PTHR1 extracellular domain (ECD); assay: SPR; mean of two experiments; biotinylated Nb immobilized
[5] = biological target: T2, PTHR1 extracellular domain (ECD); assay: SPR; replicate 2; biotinylated Nb immobilized
[6] = biological target: T3, PTHR1 extracellular domain (ECD) (Homo sapiens); assay: SPR; Nb_(PTHR1) and PTHR1 ECD; details in Supplementary Methods; settings: both partners purified
T3 construct: extracellular domain of the type-1 parathyroid hormone receptor; also called PTHR1 ECD; PTHR1 (ECD)
T3 chain: T2 chain

[7] = biological target: T2, PTHR1 extracellular domain (ECD); assay: SPR; replicate 1; biotinylated Nb immobilized
[8] = biological target: T4, nanoluciferase-PTHR1 fusion (nLuc-PTHR1) (Homo sapiens, UniProt Q03431); assay: FRET or BRET; competition on cells expressing nLuc-PTHR1: Nb_(PTHR1)-TMR (1 uM) followed by unlabeled ligand (2 uM), or varying unlabeled ligand added together with Nb_(PTHR1)-TMR (300 nM); settings: one partner purified
T4 construct: type-1 parathyroid hormone receptor with nanoluciferase fused to the receptor N-terminus; source: cell line stably expressing the construct, on cells; not shown: nanoluciferase, N-terminal, kept

[9] = biological target: T5, glucagon-like peptide-1 receptor (GLP1R) (UniProt P43220 24-463); assay: SPR; GLP1R-ECD; replicate 1
T5 chain: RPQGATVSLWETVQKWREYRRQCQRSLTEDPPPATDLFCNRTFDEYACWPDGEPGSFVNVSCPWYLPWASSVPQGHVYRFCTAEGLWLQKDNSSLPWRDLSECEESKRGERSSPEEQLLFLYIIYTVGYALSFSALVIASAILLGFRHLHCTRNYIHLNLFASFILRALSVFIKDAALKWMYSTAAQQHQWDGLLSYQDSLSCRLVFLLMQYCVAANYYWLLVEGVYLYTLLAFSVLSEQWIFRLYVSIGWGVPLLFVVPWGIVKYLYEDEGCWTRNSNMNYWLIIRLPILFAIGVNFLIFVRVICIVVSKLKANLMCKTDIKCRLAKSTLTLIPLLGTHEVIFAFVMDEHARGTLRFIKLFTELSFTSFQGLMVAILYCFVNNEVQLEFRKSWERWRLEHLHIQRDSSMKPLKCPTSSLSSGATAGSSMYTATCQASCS

[10] = biological target: T5, glucagon-like peptide-1 receptor (GLP1R); assay: SPR; GLP1R-ECD; replicate 2
[11] = biological target: T5, glucagon-like peptide-1 receptor (GLP1R); assay: SPR; GLP1R-ECD; replicate 2
[12] = biological target: T5, glucagon-like peptide-1 receptor (GLP1R); assay: SPR; GLP1R-ECD; replicate 1

T1 sequence (Q03431 27-593): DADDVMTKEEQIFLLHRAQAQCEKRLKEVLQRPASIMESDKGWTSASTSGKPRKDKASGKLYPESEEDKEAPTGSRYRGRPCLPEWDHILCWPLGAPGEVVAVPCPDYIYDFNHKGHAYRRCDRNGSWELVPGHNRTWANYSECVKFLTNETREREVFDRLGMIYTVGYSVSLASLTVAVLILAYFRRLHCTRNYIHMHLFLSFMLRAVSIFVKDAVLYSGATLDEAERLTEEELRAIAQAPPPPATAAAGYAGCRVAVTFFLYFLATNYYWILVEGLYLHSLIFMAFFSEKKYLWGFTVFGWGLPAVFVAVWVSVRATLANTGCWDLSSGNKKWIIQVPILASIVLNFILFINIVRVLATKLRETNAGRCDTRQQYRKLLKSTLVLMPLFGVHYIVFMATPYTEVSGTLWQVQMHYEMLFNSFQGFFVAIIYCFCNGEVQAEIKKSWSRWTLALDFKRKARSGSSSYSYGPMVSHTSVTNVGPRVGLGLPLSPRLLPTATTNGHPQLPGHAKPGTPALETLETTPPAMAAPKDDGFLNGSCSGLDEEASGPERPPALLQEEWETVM
T4 sequence (Q03431 27-593): as above

B1: Nb_(PTHR1-X2) labeled with biotin (VHH)
VHH: EVQLVESGGGLVQAGGSLRLSCAASGLTFSNYAMGWFRQAPGKEREWVASINWSGGSTYYEDSVEGRFTISRDNAKNTVNLQMNSLKPEDTAVYYCAAKRGHYSREYDYWGQGTQVTVSS
notes: as the chain of m8; His6 is lost in the sortase reaction; also called Nb_(PTHR-X2); source: E. coli BL21(DE3), purified (Ni-NTA, SEC), labeled by sortagging; not shown: His6, C-terminal, cleaved
- binding result [1]: binds

B2: Nb_(PTHR1), unlabeled (VHH)
VHH: EVQLVESGGGLVQAGGSLRLSCAASGNIFANNIMGWYRQPPGKEREFVAHVSHDGDSMYAVSVKGRFAISRKDATNLYLQMNSLKPEDTAIYFCRLLNIPTQGRMEGFWGQGTQVTVSS
notes: Expressed from pET26b in frame with pelB and His6; the Nbs for sortagging bear LPETGG followed by His6 at the C-terminus; also called VHH_(PTHR); source: E. coli BL21(DE3), purified (Ni-NTA, SEC)
- koff [2]: 0.0015 s⁻¹
- Kd [3]: 0.5 nM
- Kd [4]: 0.7 nM
- Kd [5]: 0.9 nM
- Kd [6]: ~1 nM
- koff [7]: 0.0065 s⁻¹

B3: Nb_(PTHR1) labeled with biotin (VHH)
VHH: B2 VHH
notes: as the chain of m5; His6 is lost in the sortase reaction (unreacted protein is captured on nickel NTA beads); also called biotin-labeled Nb_(PTHR1); source: E. coli BL21(DE3), purified (Ni-NTA, SEC), labeled by sortagging; not shown: His6, C-terminal, cleaved
- binding result [1]: binds

B4: Nb_(PTHR1)-TMR (tetramethylrhodamine-labeled Nb_(PTHR1)) (VHH)
VHH: B2 VHH
notes: as the chain of m5; His6 is lost in the sortase reaction; also called TMR-Nb_(PTHR1); source: E. coli BL21(DE3), purified (Ni-NTA, SEC), labeled by sortagging; not shown: His6, C-terminal, cleaved
- binding result [8]: binds

B5: Nb_(GLP1R) (VHH)
VHH: EVQLVESGGGLVQAGGSLRLSCAASGNTYSYKVMGWFRQAPGKEREFVGIIIRNGDTTYYADSVKGRFTISADNAKNTVYLQMNSLKPEDTAVYYCAASPKYMTAYERSYDWGQGTQVTVSS
- koff [9]: 0.0041 s⁻¹
- koff [10]: 0.0013 s⁻¹
- Kd [11]: 32 nM
- Kd [12]: 24 nM
